Assay [1] deals with T1, human αvβ8 integrin on cells (K562 cells stably transfected with αvβ8; HeLa b8 cells in the TMLC assay) (human, UniProt P06756 31-1048; P26012 43-769).
T1 construct: whole, on cells; also called avb8; alpha(v) beta (8) integrin
The experiment in a line: cell surface titration on K562 cells stably transfected with αvβ8; K562 cells with αvβ8; BP1 lacking A39K.

For assay [2], the target named is T2, human αvβ6 integrin on cells (A431 carcinoma cells; K562 cells stably transfected with αvβ6) (human, UniProt P06756 31-1048; P18564 22-788). Put plainly: cell-based or functional assay.
Assay [3] concerns the target T3, αvβ1 integrin on stably transfected K562 cells (UniProt P06756 31-1048; P05556 21-798, limits assumed).
T3 construct: whole, on cells; also called avb1; alpha(v) beta (1) integrin
The experiment in a line: cell surface binding on stably transfected K562 cells.

Assay [4] has as its target T4, α8β1 integrin on stably transfected K562 cells (UniProt P53708 39-1063; P05556 21-798, limits assumed).
T4 construct: whole, on cells; also called a8b1; alpha 8 beta 1
The description is as above.

Assay [5] has as its target T5, α5β1 integrin on stably transfected K562 cells (UniProt P08648 42-1049; P05556 21-798, limits assumed).
T5 construct: whole, on cells; also called a5b1; alpha 5 beta 1
The assay is described as above.

The target in assay [6] is T6, αiibβ3 integrin on stably transfected K562 cells (UniProt P08514 32-1039; P05106 27-788, limits assumed).
T6 construct: whole, on cells; also called aiibb3; alpha (iib) beta (3) integrin
The description is as above.

Assay [7] has as its target T7, αvβ5 integrin on stably transfected K562 cells (UniProt P06756 31-1048; P18084 24-799, limits assumed).
T7 construct: whole, on cells; also called avb5; alpha(v) beta (5) integrin
The assay is described as above.

Assay [8] addresses T8, αvβ3 integrin on stably transfected K562 cells (UniProt P06756 31-1048; P05106 27-788, limits assumed).
T8 construct: whole, on cells; also called avb3; alpha(v) beta (3) integrin
The assay is described as above.

Assay [9] concerns the target T9, human αvβ6 integrin, soluble protein (biotinylated for yeast display; in solution for BLI) (human, UniProt P06756 31-992; P18564 22-707, limits assumed, biotinylated in the yeast display experiments (site not stated)).
T9 construct: also called avb6; alpha(v) beta (6) integrin
The experiment in a line: BLI (Octet RED96), His-tagged binder on Ni-NTA sensor, αvβ6 in solution. As to the method:
(§1) Data was collected on an Octet™ RED96 (Forte Bio) and processed using the instrument's software. His Tagged protein binders were immobilized on Ni-NTA octet sensors. The tips are then dipped into wells containing different concentrations of αᵥβ₆. Association and dissociation steps were recorded for 900 s and 1200 s respectively. An empty sensor with no loaded binding protein was included to discard any non-specific binding of αᵥβ₆ to the octet tip.

In assay [10] the target is T9, human αvβ6 integrin, soluble protein …. Put plainly: BLI titration of purified protein against αvβ6 (FIG. 2f,g); BLI, purified BP1 against αvβ6. On the procedure: as §1
For assay [11], the target named is T2, human αvβ6 integrin on cells (A431 …). The experiment in a line: row 'X(selectivity)' of the drawn table: αvβ6 over αvβ8, cell surface competition assay.
In assay [12] the target is T9, human αvβ6 integrin, soluble protein …. Put plainly: BLI (Octet RED96), His-tagged binder on Ni-NTA sensor, αvβ6 in solution. This is another data set of the same source.
Assay [13] has as its target T2, human αvβ6 integrin on cells (A431 …). Put plainly: flow cytometry titration of AF488-labelled binder on A431 cells, 5 hours at 4° C., one site-specific binding fit. The text has this: We set out to test the ability of these binders to bind to αᵥβ₆(+) cells and block TGF-β mediated downstream signaling. We generated fluorescently labelled BP1 and BP2 by conjugating Alexafluor-488 to an engineered C-term cysteine via maleimide chemistry. The fluorescently labelled proteins were titrated against αᵥβ₆ positive human epidermoid carcinoma A431 cells.
Epidermoid cancer cells (A431) and human embryonic kidney 293T cells (HEK 293T) were purchased from American Type Culture Collection (ATCC) and grown in Dulbecco's Modified Eagle Medium (DMEM, Gibco) supplemented with 10% fetal bovine serum (FBS, Gibco) in a humidified atmosphere with 5% CO2 at 37° C. Binding assays were performed on A431 carcinoma cells. A431 cells were dissociated from culture flasks with enzyme-free cell dissociation buffer (Gibco). Varying concentrations of AG-AF488 and E13T-AF488 were incubated with 5×10^4 A431 cells in 1×TBS with 0.1% BSA, 1 mM Ca2+, and 1 mM Mg2+ (BTBS) rotating in suspension for 5 hours at 4° C. Sufficient incubation volumes were used to avoid >5% ligand depletion. After incubation, cells were washed with BTBS and analyzed by flow cytometry on an Accuri™ C6 instrument (BD Biosciences), and data were quantified using FlowJo™ software (TreeStar). Kd values were determined by fitting the data to a one site—specific binding curve using Prism™ 7 (GraphPad Software).

The target of assay [14] is T9, human αvβ6 integrin, soluble protein …. The experiment in a line: BLI titration of purified protein against αvβ6 (FIG. 2f,g); BLI, purified BP2 against αvβ6. On the procedure:
as §1

The target in assay [15] is T2, human αvβ6 integrin on cells (A431 …). Put plainly: cell surface binding assay on K562 cells stably expressing αvβ6/αvβ8; reference αvβ8.
The target in assay [16] is T9, human αvβ6 integrin, soluble protein …. The experiment in a line: binding assay not named.

T2 sequence (P06756 31-1048, chain 1 of 2): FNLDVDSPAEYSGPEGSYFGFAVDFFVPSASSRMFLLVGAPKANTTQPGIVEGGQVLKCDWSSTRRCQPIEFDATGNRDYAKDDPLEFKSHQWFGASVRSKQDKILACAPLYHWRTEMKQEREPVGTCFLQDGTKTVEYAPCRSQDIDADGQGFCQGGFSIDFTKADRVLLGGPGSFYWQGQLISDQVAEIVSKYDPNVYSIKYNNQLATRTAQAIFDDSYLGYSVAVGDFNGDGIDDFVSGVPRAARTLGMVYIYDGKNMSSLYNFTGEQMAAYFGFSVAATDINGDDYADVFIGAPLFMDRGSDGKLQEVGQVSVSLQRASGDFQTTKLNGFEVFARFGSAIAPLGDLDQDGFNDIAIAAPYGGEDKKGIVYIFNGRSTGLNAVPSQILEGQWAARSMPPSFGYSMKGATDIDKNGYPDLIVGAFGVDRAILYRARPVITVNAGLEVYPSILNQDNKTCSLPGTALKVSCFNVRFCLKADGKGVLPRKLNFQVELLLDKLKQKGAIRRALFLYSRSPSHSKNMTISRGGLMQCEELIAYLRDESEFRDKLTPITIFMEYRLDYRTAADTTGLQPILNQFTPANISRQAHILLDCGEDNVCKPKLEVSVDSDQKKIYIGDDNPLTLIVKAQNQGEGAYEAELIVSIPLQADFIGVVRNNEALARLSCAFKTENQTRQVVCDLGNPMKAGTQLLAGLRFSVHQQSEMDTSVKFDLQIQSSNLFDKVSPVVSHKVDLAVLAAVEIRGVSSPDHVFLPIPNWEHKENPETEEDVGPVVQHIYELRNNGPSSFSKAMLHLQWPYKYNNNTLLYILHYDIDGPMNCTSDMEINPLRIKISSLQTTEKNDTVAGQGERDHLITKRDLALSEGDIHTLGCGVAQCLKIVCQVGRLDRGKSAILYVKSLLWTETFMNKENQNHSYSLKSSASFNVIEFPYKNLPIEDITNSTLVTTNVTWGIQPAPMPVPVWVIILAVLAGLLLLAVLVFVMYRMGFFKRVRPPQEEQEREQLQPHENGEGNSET
T2 sequence (P18564 22-788, chain 2 of 2): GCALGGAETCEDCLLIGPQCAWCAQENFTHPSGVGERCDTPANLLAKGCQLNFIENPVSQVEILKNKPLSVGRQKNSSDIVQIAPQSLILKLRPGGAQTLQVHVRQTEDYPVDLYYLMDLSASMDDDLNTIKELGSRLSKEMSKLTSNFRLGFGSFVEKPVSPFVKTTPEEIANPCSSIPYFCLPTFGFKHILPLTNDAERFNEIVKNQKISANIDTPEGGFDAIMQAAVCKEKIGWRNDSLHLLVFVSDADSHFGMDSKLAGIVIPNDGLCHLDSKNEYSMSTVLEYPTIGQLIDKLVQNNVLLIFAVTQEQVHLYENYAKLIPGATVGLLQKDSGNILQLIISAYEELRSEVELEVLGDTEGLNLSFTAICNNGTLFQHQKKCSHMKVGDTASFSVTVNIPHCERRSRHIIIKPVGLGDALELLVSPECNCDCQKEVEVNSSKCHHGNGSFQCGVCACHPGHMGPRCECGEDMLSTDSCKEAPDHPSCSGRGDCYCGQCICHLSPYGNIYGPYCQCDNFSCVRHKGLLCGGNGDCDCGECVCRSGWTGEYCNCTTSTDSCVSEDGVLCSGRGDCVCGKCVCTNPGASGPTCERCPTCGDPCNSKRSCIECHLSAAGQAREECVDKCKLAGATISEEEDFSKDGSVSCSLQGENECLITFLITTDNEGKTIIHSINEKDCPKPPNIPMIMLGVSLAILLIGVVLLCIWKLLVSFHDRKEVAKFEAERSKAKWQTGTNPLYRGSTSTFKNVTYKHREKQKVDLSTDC
T9 sequence (P06756 31-992 limits assumed, chain 1 of 2): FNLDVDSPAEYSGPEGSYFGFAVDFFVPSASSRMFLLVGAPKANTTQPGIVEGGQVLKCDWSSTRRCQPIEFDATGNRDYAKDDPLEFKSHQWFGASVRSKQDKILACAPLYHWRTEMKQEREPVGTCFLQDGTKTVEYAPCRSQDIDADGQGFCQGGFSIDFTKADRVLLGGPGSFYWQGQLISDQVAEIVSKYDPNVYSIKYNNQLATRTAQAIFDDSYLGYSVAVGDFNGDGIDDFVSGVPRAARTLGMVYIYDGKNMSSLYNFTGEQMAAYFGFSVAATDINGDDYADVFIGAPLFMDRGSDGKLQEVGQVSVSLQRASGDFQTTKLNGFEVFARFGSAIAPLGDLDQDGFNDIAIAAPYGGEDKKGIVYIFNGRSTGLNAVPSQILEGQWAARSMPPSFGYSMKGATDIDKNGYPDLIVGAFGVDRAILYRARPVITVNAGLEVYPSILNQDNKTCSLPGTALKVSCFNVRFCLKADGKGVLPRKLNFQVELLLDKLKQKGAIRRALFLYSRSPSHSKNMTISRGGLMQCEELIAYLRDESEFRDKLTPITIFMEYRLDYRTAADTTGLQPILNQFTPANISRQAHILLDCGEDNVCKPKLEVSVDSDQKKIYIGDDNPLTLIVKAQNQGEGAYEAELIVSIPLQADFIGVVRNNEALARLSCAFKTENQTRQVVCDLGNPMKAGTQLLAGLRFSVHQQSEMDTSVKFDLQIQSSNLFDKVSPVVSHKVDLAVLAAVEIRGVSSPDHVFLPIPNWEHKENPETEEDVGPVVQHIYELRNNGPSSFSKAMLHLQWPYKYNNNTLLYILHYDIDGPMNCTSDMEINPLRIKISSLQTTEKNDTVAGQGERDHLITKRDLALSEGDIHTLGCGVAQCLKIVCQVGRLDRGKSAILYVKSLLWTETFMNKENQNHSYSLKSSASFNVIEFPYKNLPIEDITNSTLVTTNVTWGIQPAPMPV
T9 sequence (P18564 22-707 limits assumed, chain 2 of 2): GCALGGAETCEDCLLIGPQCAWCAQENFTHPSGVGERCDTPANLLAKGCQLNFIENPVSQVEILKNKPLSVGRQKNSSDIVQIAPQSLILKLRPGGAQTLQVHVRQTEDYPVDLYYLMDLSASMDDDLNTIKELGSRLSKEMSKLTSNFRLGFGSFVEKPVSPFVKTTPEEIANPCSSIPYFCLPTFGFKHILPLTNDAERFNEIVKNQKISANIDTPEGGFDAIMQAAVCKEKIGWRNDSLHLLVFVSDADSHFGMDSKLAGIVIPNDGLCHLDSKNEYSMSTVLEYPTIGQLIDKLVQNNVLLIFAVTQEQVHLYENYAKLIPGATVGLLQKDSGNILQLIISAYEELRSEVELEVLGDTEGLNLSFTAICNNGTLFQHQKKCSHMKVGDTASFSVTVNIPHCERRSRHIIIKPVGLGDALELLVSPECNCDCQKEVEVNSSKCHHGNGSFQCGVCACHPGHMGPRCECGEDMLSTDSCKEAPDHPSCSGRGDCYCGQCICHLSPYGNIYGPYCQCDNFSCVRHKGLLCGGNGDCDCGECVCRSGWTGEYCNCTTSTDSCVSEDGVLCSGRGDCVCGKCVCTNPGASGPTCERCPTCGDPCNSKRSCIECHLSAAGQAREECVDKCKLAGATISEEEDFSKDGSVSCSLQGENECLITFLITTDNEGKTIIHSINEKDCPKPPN
T3 sequence (P06756 31-1048 limits assumed, chain 1 of 2): as the sequence (P06756 31-1048, chain 1 of 2) above
T3 sequence (P05556 21-798 limits assumed, chain 2 of 2): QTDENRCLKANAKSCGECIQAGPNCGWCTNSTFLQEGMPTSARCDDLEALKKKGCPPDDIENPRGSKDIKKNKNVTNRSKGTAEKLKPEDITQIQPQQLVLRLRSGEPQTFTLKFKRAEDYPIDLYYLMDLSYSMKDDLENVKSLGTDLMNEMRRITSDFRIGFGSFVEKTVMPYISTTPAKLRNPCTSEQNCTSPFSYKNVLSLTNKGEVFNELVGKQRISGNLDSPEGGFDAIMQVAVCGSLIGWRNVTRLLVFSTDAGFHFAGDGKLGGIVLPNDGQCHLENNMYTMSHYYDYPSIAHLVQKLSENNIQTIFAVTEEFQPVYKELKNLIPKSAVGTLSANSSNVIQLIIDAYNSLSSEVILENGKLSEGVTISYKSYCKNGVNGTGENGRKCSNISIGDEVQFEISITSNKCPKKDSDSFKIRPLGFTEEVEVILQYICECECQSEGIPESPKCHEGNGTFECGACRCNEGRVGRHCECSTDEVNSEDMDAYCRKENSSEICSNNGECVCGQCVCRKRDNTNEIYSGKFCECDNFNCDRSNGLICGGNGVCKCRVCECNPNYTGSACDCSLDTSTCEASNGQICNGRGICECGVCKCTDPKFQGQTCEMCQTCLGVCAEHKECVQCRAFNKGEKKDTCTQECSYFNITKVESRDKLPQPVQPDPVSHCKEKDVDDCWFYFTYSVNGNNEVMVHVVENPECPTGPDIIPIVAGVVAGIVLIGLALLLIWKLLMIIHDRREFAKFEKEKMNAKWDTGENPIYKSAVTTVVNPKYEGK
T8 sequence (P06756 31-1048 limits assumed, chain 1 of 2): as the sequence (P06756 31-1048, chain 1 of 2) above
T8 sequence (P05106 27-788 limits assumed, chain 2 of 2): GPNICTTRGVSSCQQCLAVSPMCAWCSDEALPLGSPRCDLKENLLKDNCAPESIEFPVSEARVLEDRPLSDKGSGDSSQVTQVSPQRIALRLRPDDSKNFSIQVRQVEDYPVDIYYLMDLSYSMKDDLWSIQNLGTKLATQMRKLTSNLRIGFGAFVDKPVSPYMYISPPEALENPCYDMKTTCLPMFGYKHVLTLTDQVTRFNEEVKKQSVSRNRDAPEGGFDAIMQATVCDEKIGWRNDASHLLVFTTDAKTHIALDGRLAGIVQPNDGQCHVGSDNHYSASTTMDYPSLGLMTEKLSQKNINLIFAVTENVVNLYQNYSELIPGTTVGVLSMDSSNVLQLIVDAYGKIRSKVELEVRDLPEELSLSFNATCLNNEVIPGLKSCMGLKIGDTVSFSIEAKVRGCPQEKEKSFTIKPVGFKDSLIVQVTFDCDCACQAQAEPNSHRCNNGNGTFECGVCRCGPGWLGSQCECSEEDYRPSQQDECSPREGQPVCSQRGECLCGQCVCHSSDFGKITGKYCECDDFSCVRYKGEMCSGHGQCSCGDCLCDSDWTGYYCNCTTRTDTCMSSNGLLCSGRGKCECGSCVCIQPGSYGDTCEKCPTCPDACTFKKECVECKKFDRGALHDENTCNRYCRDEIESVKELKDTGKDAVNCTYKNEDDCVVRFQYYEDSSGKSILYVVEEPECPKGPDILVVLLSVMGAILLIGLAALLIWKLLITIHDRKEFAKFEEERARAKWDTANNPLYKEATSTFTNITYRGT

B1: BP1 (av6_3_E13T) (designed binder)
chain: MAVVRFVFRGDLATLMLRAVKDHLKKEGPHWNITSTNNGAELVVRGIHESDAKRIAKWVEKRFPGVHTETQQD
notes: also called BPI; not shown: C-terminal His tag (pET29b, NdeI/XhoI)
On to B1, for which the Kd in assay [1] was approximately 7.3 nM; in assay [9], 0.334 nM; in assay [10], less than 1 nM. Further, in assay [2], the “IC50 of the block of αvβ6 mediated TGF-β activation, TMLC luciferase reporter co-culture assay” value was found to be 0.199 nM. The binding result in assay [3], in assay [4], in assay [5], in assay [6], in [7] and in assay [8] was “no binding (tested: up to 200 nM)” each time.

B2: av6_3 (designed binder)
chain: MAVVRFVFRGDLAELMLRAVKDHLKKEGPHWNITSTNNGAELVVRGIHESDAKRIAKWVEKRFPGVHTETQQD
notes: the purified protein (BLI, cell assays) carries a C-terminal His tag; also called αv6_3; original unevolved av6_3; not shown: C-terminal His tag of the purified protein (pET29b, NdeI/XhoI)
In the case of B2, the “X(selectivity)” value in assay [11] came out at 14 X. Besides, the “apparent Kd (pooled screen)” value in [12] worked out at 1.18 nM.

B3: BP1 labelled with Alexa Fluor 488 on an engineered C-terminal cysteine (designed binder)
chain: MAVVRFVFRGDLATLMLRAVKDHLKKEGPHWNITSTNNGAELVVRGIHESDAKRIAKWVEKRFPGVHTETQQD
modifications: Alexa Fluor 488 C5 maleimide on the engineered C-terminal cysteine
notes: also called E13T-AF488; fluorescently labelled BP1; not shown: engineered C-terminal cysteine and any tag
Turning to B3, in assay [13], the equilibrium dissociation constant (Kd) came out at 0.167 nM.

B4: BP2 labelled with Alexa Fluor 488 on an engineered C-terminal cysteine (designed binder)
chain: MAVVRFVFRGDLAELMLRAVKDHLKKEGPHWNITSTNNGKELVVRGIHESDAKRIAKWVEKRFPRVHTETQQD
modifications: Alexa Fluor 488 C5 maleimide on the engineered C-terminal cysteine
notes: also called AG-AF488; fluorescently labelled BP2; not shown: engineered C-terminal cysteine and any tag
In [13], B4 registered a Kd of 0.03 nM.

B5: BP2 (av6_3_A39KG64R) (designed binder)
chain: MAVVRFVFRGDLAELMLRAVKDHLKKEGPHWNITSTNNGKELVVRGIHESDAKRIAKWVEKRFPRVHTETQQD
notes: not shown: C-terminal His tag (pET29b, NdeI/XhoI)
On to B5, for which, in assay [2], the “IC50 of the block of αvβ6 mediated TGF-β activation, TMLC luciferase reporter co-culture assay” value came out at 0.151 nM. The binding result in assay [3], in assay [4], in assay [5], in [6], in [7] and in assay [8] was “no binding (tested: up to 200 nM)” each time. Further, the dissociation constant Kd in [14] was less than 1 nM; in assay [9], 0.414 nM. The “fold specificity towards αvβ6 over αvβ8” value in assay [15] was more than 5000 fold.

B6: BP2_disulf with knockout mutation of the RGD to KGE (designed binder)
chain: MTKCVVRFVFKGELAELMLRAVKDHLKKEGPHWNITSTNNGKELVVRGIHESDAKRIAKWVEKRFPRVHTETQCD
notes: if the listing entry starts with Met they are 11 and 13; also called KGE knockout of BP2_disulf
Regarding B6, in assay [16], the binding result is recorded as “no binding”.

B7: av6_11 (designed binder)
chain: MAVVRFVFRGDLAELMLRAVKDHLKKEGPHWNITSDTSKGAELVVRGIHESDAKRIAKWVEKRFPGVHTETQQ
notes: Yeast display: Aga2 fusion with C-terminal myc tag; also purified from E. coli with C-terminal His tag
Consider B7, for which, in [11], the “X(selectivity)” value stood at 8 X.

B8: av6_15 (designed binder)
chain: MAVVRFVFRGDLAELMLRAVKDHLKKEGPHWNITSVESSQVELVVRGIHESDAKRIAKWVEKRFPGVHTETQQ
notes: as for B7
For the molecule B8, in [11], the “X(selectivity)” value worked out at 6 X.
